Experiment: soluble on expression in E. coli; label from the status in PepcDB or PDB records

Sequence	soluble on expression in E. coli
MFDFNDSMVSNAIIKVVGVGGGGGNAVQHMCEEVSDVEFFALNTDGQALSKSKVQNILQIGTNLTKGLGAGANPEIGKRAATEDRAKIEQLLEGADMVFITAGMGGGTGTGGAPVVAEVAKEMGILTVAVVTKPFPFEGPRRMKAAEQGIDELTKHVDSIITVPNEKLLSVLGKGASLIDAFNAANDVLGNAVKGVSELITKPGLINVDFADVRAVMTNMGLAMMGMGEASGENRAREAAEAAISSPLLEDINLDGAKGVIVNITAGMDMSIGEFEEVGEVIRSFISDEAIVIAGTVIDPDMSDSMKVTVVVTGIEKVAMKRGFGVEKTSSLQQSASSFSNKTSAPFLRKETEVVTGASNAPKTDSDDVNKSDIPSFLRRR	not soluble
MGSDKIHHHHHHMATTESFAQTLAAKQPRLLAAFKHIIAQNHLAHAYLFAGMEGAGQPELAHWIAQRLFCLHINDGEPDGTCEECVRIANGSHPDIVTVAPEGQRIHVDQVRYLKAEFSKSAVEGNRKLFIINDAEKMTASAANSLLKFIEEPSGNVTALLLTTNKQLMLPTIISRTQVIEFPPLNAQALQQTFEQAGIAPNQAQMLRGLTNSVTQAQALLADDWLPQAAQALWRWFDQAVKGDPRSFVAVQVNLVGLAKDADHQLVMLDLIAALFQDLLQLHFEVATTALTFGQYQKELAGLTAEVSDEQLIAATELALTAKRQLASNISFQNVLEGLTLKLWPIFQTNA	not soluble
MSELDTVIKNAEEIAIQEDEEIIEEVIEEEQVPWLGPTDVMEGQGEYYQSEELLEHEMVEYEDAEPYQSFLPIRDGAPYFSLNLPDLLSKAHQITQDTGVIVRLTSCFNKKCQRQVACGGCLYTIKDYVSDIQWNNWTCINPQCFGEIRTTPDFRDIREVHGHTANCPPPDEIQIAVRIAVYDTRLLAEFTDTPLENLYFGAVERLKIDCADGFVLFPPFEVVKSTLEDHRHNKIYRKRFEMQNLRDKQRKMNMTPDEVVFAENTSGMIRFRRTKPFPMSICNVCGEEISSTNLPSQDQLISHYMYTHGRRMTIERYEFKDVNTFEQYLRELNSMGKYKFKRMGLADENMFYLCSHDDRLNKTGIGRATRLQQQSCHCTAFIRVFDWRVRWKLNNLNYEQITKKSDIYTFNAVCKVEDMCMSLLNRLQDCQNPRVALGYREKIAAIVRKSTTDPGLCDEKSVEEIEKSWVLQKPIRGRPRKRVKLENGQEDGGGDLDEDDDVVMDDYEDGEENGDKKITASRRSESPKPASSSSEPPPPSTTEEASTSLADELPRVTREESTSSNTSGHVAGDVTTRSGRARKPPARLLDD	not soluble
MSQPAYRLFNVELKRREQLSPALTRFVFGGPEVAEMKTLAADQRIKIFFPDASGQPPSLPGGSEWYQAYRSVEPARRPPMRTYTIRALRAEQEEVDVEFVLHGENGPASAWATHARIGDRLQLAAPNRQYGDDPGGYEWKPPAGVRHILLIADETALPAVAGILEELAGETEPPVVEAFLEVPGEADILDLPAIPAARLHWLPRHQAGIHSRNGERMIEAARQARLPEREVAGGAAQELEDIDIDEEILWELASPESGSFYAWVAGESAAVMAIRRYLVQERGIDKRHLTLMGYWRLGKVFD	not soluble
MKIEFFHDVICSFCFPMSDRMHEIQQEFPEIELIHRSFALGWSANDFETMFGSRAAVKEEVLTHWVHANQNDSKHRFNIEGMRKQRFDFPTSKNVLLAAKAAGYIGNQDTYWLLFDKLQEGLFVRSLNIEEPEVIEKLVKETTIDFALWKEAVASEAVWTAVQEDFALASAYGLQGVPALIINQKYLINGAVPKQQISQTIQKILAEEKQQQPLVSLTPSSEESASCEFKEGTWTCH	not soluble
MAHHHHHHMLYHYDILKYNSNHEYNNCSYFKNTFVHFFDYIYNIKMMKEYNDLKAKICINKEFNILFNILNKMNYSFAYRDKKLIKMNDCLYHTYHIIGIKKISSIGYIFNFKNELNDNFSKVLKTKISNILSIEDIYFLFNRFFYFLLMYIRKFCCFSNKKDTNIPQNEAETFVNSVCNCKQDNCCYKIKTIVLINNIQ	not soluble
MAKVLVLYYSMYGHIETMARAVAEGASKVDGAEVVVKRVPETMPPQLFEKAGGKTQTAPVATPQELADYDAIIFGTPTRFGNMSGQMRTFLDQTGGLWASGALYGKLASVFSSTGTGGGQEQTITSTWTTLAHHGMVIVPIGYAAQELFDVSQVRGGTPYGATTIAGGDGSRQPSQEELSIARYQGEYVAGLAVKLNG	soluble
MSLIELWPAIDLIGSTSVRLTEGKYDSEEKMSRSAEESIAYYSQFECVNRIHIVDLIGAKAQYAREFDYIKSLRRLTTKDIEVGGGIRTKSQIMDYFAAGINYCIVGTKGIQDTDWLKEMAHTFPGRIYLSVDAYGEDIKVNGWEEDTELNLFSFVRQLSDIPLGGIIYTDIAKDGKMSGPNFELTGQLVKATTIPVIASGGIRHQQDIQRLASLNVHAAIIGKAAHQASFWEGLEEGHHHHHH	soluble
SLDVCRGMLCGFGAVCEPSVEDPGRASCVCKKNVCPAMVAPVCGSDASTYSNECELQRAQCNQQRRIRLLRQGPCGSRDPCANVTCSFGSTCVPSADGQTASCLCPTTCFGAPDGTVCGSDGVDYPSECQLLRHACANQEHIFKKFDGPCDPCQGSMSDLNHICRVNPRTRHPEMLLRPENCPAQHTPICGDDGVTYENDCVMSRIGAARGLLLQKVRSGQCQT	soluble
MFQLPILNFSPQQVAGVCETLEESGDVERLGRFLWSLPVAPAACEALNKNESVLRARAIVAFHGGNYRELYHILENHKFTKESHAKLQALWLEAHYQEAEKLRGRPLGPVDKYRVRKKFPLPRTIWDGEQKTHCFKERTRHLLREWYLQDPYPNPSKKRELAQATGLTPTQVGNWFKNRRQRDRAAAAKNRLQQQVLSQGPGRVLRSEGEGTPEVLGVASSPAASLSSKAATSAISITSSDSECDI	soluble
MTKQYLTHRCLIAPPEMADDFFANTVIYLARHDDEGAQGLIINRPSGIQVRELLNDLDIEADHVQPHEVLQGGPLRPEAGFVLHTGQPVWHSSIAVGENLCITTSKDILDAIAHNEGVGRYQIALGYASWTKNQLEGEISRGDWLICDADMDLIFNLPYDERWDAAYKKLGVDRIWLSSEIGHALEHHHHHH	soluble
MKLREQINSISGFRYVIDELCIHSSVGRRCLMEQEFLTEASDIEVLLSRVEIAISYQADQRKQKGLDEIAHKLMQLRDIQGTIYSLSRHVVCTDIDFFEIKFLAILSEDIRDLIRFYQLDDLSSPLPDLSHIVSVLDPEEKKIPHFYIYDAYS	not soluble
MAHHHHHHMLDFLDTINKYTLRSGSVTHIGGKISKKCAAQLVGSLVLQGRLNHYCAALAAQFMVSSEVLVVASRDAVQGISCEGCTLERQNLSSVPDTGEIFGVATTGNNVVVGYSAGVAMFSCKLELEKIYTLSEYTNSILGIAVTPDGSCLATGGANAIVTVWSRDMNPVHYLAGHTDWVRFVKFTIMDGRGLELFSTGDDGLVLHWDPLVGTLLSRIDFFHGQDIHAFEVSWRTGLIGIARDTPTICLYKPQISGIASNHAVGAVRLEQIGRIDDAHHSVLTALRFSNDSQWIVSAGEDETLSVSSVCQLKRVFVCETFIVRRHCMTFMNTFTSVCVLASPPESSAIIVVACATDGTVVQWVVNPETFKCTYTKKLQLL	not soluble
MKPYDLSEAVAVVTGGSSGIGLATVELLLEAGAAVAFCARDGERLRAAESALRQRFPGARLFASVCDVLDALQVRAFAEACERTLGCASILVNNAGQGRVSTFAETTDEAWSEELQLKFFSVIHPVRAFLPQLESRADAAIVCVNSLLASQPEPHMVATSAARAGVKNLVRSMAFEFAPKGVRVNGILIGLVESGQWRRRFEAREERELDWAQWTAQLARNKQIPLGRLGKPIEAARAILFLASPLSAYTTGSHIDVSGGLSRHA	soluble
MVSRHIPERLKKKIYQEANMTCPNCGERDVSTFEIHHIQPFVDVKKHEERNLILLCSNCHSKATVGELTEIEVLRLKVGLISSSSGQSKETMPSNVITLDSVKNHGVIANQVTLNNSPAKVVLLPAVGSIASSLKHQNYIKYLIDKYHAYKIVEVGKSNMKYPVFYNALKRKFGAKWDMVPIDRFLELSTYIQDRIEKTVLGKKLKAQGKKSYSTFEEYLAKNCSLEHHHHHH	not soluble
HNGWTWEASLNLSANRNKLTELASGSKDDKANNWFVGHPIDCIYDYEKVGLWNSDDPDFQYLDILEPGGNEGMIKVKYTGDRDASGKPTRAIGPEDRQIISLEPKFQGGFSTRVAYKGFDLNVITAFRCGGKLISTLHHSNGYLNMLTGRRGQVDVDYWTPENKGAKYPKPGGIQSGDNPKYGSTLGYFDSSYWKVRNITLGYNFEKQAWLTRMGIQSLRAYLSVQNPFIICSPFHKETGLDPETNSYGNENVAVTEGIQKRFLTVGTNSPSTRNYLFGINLTF	not soluble
MGSDKIHHHHHHMLSLRHSCPRRALKVPNPFVEEAGPQPPKVLKAPVEIQANLRLLQDSRDSLLITFADRNQRFQSFLVDIDRDRGMVALDELIPNTGERFLQNGEAFRVEAFHEGVRIAWECERPVQFGEHDGVPCYWAALPAEVLYHQRRNAYRASIKQSQPIAAEIAGEKLRAPLSGQLLDISATGAKLRFAGNVAERLHPGEIYEDFSAQLPQGAISSAIELRHVRFDEKLDATFAGVRFSEMSGLAQRQVDRFVYQLQREARRFEKDELF	not soluble
MLDEKASEEEIKAMFLMLSGGLKSQPGEDEKATAVAYLFSLDGLSRWAIKTATRDVMKGKAEGLSTTFMPASADLLLYCEKLEDDIRTTVKGIFTSLDRPEIKPKGEPISAEKWDKLMQMLEKPKIGLNPFQ	not soluble
MGKEKSHINVVVIGHVDSGKSTTTGHLIYKCGGIDKRTIEKFEKEAAELGKGSFKYAWVLDKLKAERERGITIDIALWKFETPKYQVTVIDAPGHRDFIKNMITGTSQADCAILIIAGGVGEFEAGISKDGQTREHALLAFTLGVRQLIVAVNKMDSVKWDESRFQEIVKETSNFIKKVGYNPKTVPFVPISGWNGDNMIEATTNAPWYKGWEKETKAGVVKGKTLLEAIDAIEQPSRPTDKPLRLPLQDVYKIGGIGTVPVGRVETGVIKPGMVVTFAPAGVTTEVKSVEMHHEQLEQGVPGDNVGFNVKNVSVKEIRRGNVCGDAKNDPPKGCASFNATVIVLNHPGQISAGYSPVLDCHTAHIACRFDELLEKNDRRSGKKLEDHPKFLKSGDAALVKFVPSKPMCVEAFSEYPPLGRFAVRDMRQTVAVGVIKSVDKTEKAAKVTKAAQKAAKK	soluble
MLEVIATCLEDVKRIESAGGKRIELISSYTEGGLTPSYAFIKKAVEVVSIPIHVMIRPHAKSFTYTEEEIEMMKEDIIVAQKLGAAGVVLGVLNERNEVDEEKLADLLSVVDGINVTYHRAIDDIKNPVEAMSTLKKFHKVTHVLTSGGQGNIVENIPVLTEMQKVSEGQIQLVAGAGVTKENIKRLLDETGITQAHVGTAVREGKSCFSEIDPNLVQELVEIIKLEHHHHHH	soluble
MGSDKIHHHHHHMQLEELINQHYSKLNDNDFHILKYILNHKHTCYHLGIDALAKACSVSRSSILRLAQKLGFSGYSEFRVFLKWEDQPEEGESMSFEKLLDDIEANLKFLRTKDMTDMCQLIDAADRIFVYGSGNAQKICARDLQRMFIPRHRYLILIEDTNEFNLMRDDFKVNDLFIIISLSGETPELIPQARMLSAKGIPFISITNLKNNVLAQLTPHNLYATSKPVTLSDRTEIVAFAPFFLVGEALFRAYVDYKEAEKNDNE	not soluble
MSLVRGVLKRSKFRKMIRRAKVGDAKYIYELLTEFAKRGILLPRSLNSIYENIRDFWVYEKDGKVVGCVALHVMWEDLAEIRSLAVKEEYQKEGIGRELVIRALEDAWELGIKKVFSLTYVKEFFKKLGFKEIDKSVLPHKVWGECINCVKFPNCDEEAVLVELSEEYIKKLKEGEKISSLLPEGHHHHHH	soluble
